Consider one molecule from article PMC4175184, “Structure and function of cohesin’s Scc3/SA regulatory subunit” (Febs Letters, 2014).

In the assay the target is T1, S. cerevisiae Scc3, full-length protein (S. cerevisiae, UniProt P40541 1-1150).
T1 construct: Scc3, S. cerevisiae (UniProt SCC3_YEAST, P40541), full-length / intact protein; also called Sc Scc3; intact Scc3 protein; source: E. coli BL21(DE3) RIPL, purified (Talon beads, Superdex 200)
T1 sequence (looked up): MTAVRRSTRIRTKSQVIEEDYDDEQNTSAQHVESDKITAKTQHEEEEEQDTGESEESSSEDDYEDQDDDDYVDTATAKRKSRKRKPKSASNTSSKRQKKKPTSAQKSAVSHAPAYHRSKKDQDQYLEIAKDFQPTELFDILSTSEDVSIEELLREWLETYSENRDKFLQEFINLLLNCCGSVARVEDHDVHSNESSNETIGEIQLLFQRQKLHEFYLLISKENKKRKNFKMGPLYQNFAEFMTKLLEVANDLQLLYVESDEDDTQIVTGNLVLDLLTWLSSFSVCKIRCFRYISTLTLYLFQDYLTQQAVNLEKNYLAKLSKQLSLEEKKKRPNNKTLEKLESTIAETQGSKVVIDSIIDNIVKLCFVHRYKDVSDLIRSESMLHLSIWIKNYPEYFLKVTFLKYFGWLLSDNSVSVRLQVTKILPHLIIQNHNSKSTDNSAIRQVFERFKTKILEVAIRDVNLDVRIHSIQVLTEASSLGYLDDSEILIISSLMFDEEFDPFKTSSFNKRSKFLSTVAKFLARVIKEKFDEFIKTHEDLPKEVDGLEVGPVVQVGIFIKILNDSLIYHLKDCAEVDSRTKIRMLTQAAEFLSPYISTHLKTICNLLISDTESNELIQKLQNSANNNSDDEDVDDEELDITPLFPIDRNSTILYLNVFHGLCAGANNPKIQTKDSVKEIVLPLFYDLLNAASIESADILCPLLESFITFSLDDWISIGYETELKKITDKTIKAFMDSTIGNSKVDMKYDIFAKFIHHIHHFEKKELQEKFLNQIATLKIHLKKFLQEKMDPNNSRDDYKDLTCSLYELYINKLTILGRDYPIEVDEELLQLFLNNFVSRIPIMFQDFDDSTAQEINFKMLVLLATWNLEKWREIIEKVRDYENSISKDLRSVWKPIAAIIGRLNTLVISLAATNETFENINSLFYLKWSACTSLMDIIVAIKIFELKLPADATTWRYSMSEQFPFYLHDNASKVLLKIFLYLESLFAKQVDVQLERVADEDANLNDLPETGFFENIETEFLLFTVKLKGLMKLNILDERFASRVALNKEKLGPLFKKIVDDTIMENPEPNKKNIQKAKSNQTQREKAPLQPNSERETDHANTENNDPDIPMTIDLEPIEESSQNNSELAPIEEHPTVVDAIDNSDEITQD
Briefly: pull-down; two differently tagged versions of Scc1 (259–451) in the presence of intact Scc3 protein; 5 μM of each in TAP buffer, resin 2 h at 4 °C (Fig. 2-fig^1C). The conditions noted are these: both partners purified.

B1: S. cerevisiae Scc1 (259–451), two differently tagged versions (domain or fragment, UniProt Q12158 259-451, looked up)
chain: DDDNSVEQGRRLGESIMSEEPTDFGFDLDIEKEAPAGNIDTITDAMTESQPKQTGTRRNSKLLNTKSIQIDEETENSESIASSNTYKEERSNNLLTPQPTNFTTKRLWSEITESMSYLPDPILKNFLSYESLKKRKIHNGREGSIEEPELNVSLNLTDDVISNAGTNDNSFNELTDNMSDFVPIDAGLNEAPF
notes: source: E. coli BL21(DE3) RIPL, purified (Talon beads, Superdex 200)
Turning to B1, the binding result was “binds”.
